# The DeepSol protein solubility set
# Experiment: soluble on expression in E. coli; label from the status in PepcDB or PDB records
row,Sequence,soluble on expression in E. coli
1,KTSILLLLMIATALPSFGGNGNGNGTDSLQATRYVTRATMYGVGYTNVFDTYLSPQEYKGIEFRISRETMRMTTLGDGNVSVQNFFQANLAYTHNRVDNNNTFAGLVNWNYGLHYQFRITDNFKLLAGGMGDFNGGFVYNLRNTNNPASARAYINLDASGMAIWHTKIKNYPLALRYQVNLPVIGVMFSPHYGQSYYEIFTLGHASGVIRFTSLHNQPALRQMLSVDFPIRYTKMRLSYLCDLQQSKLNGIKTHTYSQVFMVGFVHDLFRIRNKNGTPLPPAVRAY,not soluble
2,MGSDKIHHHHHHKSISNKLVVFDDKEQVIQYSSNSIPVKIELYSKRWGKTSITYNNSLKEFWDIVESMPRSKNFYGSTKIENSPNDIIGTIFYLNGKRSTMCLNHNLKIDDSYYGGERGYAYINRLRNYINDIMCTPSMLASIVNDKNKVIIEDKLSEASKCGSNDKTLIKNEITKLRRISNNEKLQKTITSKGKLNYHIKIYMENSNGSNINLSKIKQDNYDIISISVYENNCAVIRDYGNDTVDTFCMEGNLTNVCKSILKR,not soluble
3,GMDIQNMPREQLGVCAEGNLHSVYLMFNANDNVESQLRPCIANVAQYIYELTDQYSDSAFNGFVAIGANYWDSLYPESRPEMLKPFPAMQEGNREAPAIEYDLFVHLRCDRYDILHLVANEISQMFEDLVELVEEERGFRFMDSRDLTGFVDGTENPKGRHRQEVALVGSEDPEFKGGSYIHVQKYAHNLSKWHRLPLKKQEDIIGRTKQDNIEYESEDKPLTSHIKRVNLKDENGKSIEILRQSMPYGSLKEQGLMFISTCRTPDHFEKMLHSMVFGDGAGNHDHLMHFTSALTGSSFFAPSLDFLMQFDN,soluble
4,MTINFRRNALQLSVAALFSSAFMANAADVPQVKVTVTDKQCEPMTITVNAGKTQFIIQNHSQKALEWEILKGVMVVEERENIAPGFSQKMTANLQPGEYDMTCGLLTNPKGKLIVKGEATADAAQSDALLSLGGAITAYKAYVMAETTQLVTDTKAFTDAIKAGDIEKAKALYAPTRQHYERIEPIAELFSDLDGSIDAREDDYEQKAADPKFTGFHRLEKALFGDNTTKGMDQYAEQLYTDVVDLQKRISELAFPPSKVVGGAAGLIEEVAASKISGEEDRYSHTDLWDFQANVEGSQKIVDLLRPQLQKANPELLAKVDANFKKVDTILAKYRTKDGFETYDKLTDADRNALKGPITALAEDLAQLRGVLGLD,soluble
5,MGSDKIHHHHHHMKYVLIQATDNGILRRAECGGAVTALFKYLLDKKLVDGVLALKRGEDVYDGIPTFITNSNELVETAGSLHCAPTNFGKLIAKYLADKKIAVPAKPCDAMAIRELAKLNQINLDNVYMIGLNCGGTISPITAMKMIELFYEVNPLDVVKEEIDKGKFIIELKNGEHKAVKIEELEEKGFGRRKNCQRCEIMIPRMADLACGNWGAEKGWTFVEICSERGRKLVEDAEKDGYIKIKQPSEKAIQVREKIESIMIKLAKKFQKKHLEEEYPSLEKWKKYWNRCIKCYGCRDNCPLCFCVECSLEKDYIEEKGKIPPNPLIFQGIRLSHISQSCINCGQCEDACPMDIPLAYIFHRMQLKIRDTLGYIPGVDNSLPPLFNIER,not soluble
6,MKTARLLSSGALALSLLAGSVTAAVSPDEAAKLGSSLTPIGAQKEGNADGSIPAWTGGLAASAGKVDGKGFLSDPFADEKPLFTITAQNVEQYKDKLSDGQLAMFKRYPETYRIPVYKTHRTVALPAEIDEAVKQSALNVQPINDGNGLSNFEKSRYYAFPIPKNGVEVLWNHITRYRGGNLKRTIVQATPQTNGSFTPIRFEESVAFPQNMPDLDQSKAANILTFFKQQVTAPARLAGNVLLVHETLDQVKEPRLAWVYNAGQRRVRRAPQVAYDGPGTAADGLRTSDNFDMFSGAPDRYDWKLVGKREMYIPYNAYKLNDPTLKYSDIIKAGHINQDLTRYELHRVWEVVGTVKPGERHIYAKRHMYIDEDSWQIALVDHYDGRGQLWRVGEGHAQYHYDQKVAGYTLEALYDVIAGRYLALGMNNEEKRGYEFGFKASSADYTPAALRNAGVR,not soluble
7,MGSDKIHHHHHHMSMNISGLGNAYSGVNTNSKQYKALKEKGWLEGVIQNEAMMSPEGKMIYEIFGGRDTIVNNLMKQFDSDGDLLNANGVAGMDVTGKGTSWQKLTNVSEEYRQKMFDNVKKEFIQENGVSNGDTTKRSDIFKDYQLSVNKDKRLSGTWTLEQYEGQYRSAMYAAVKAANPNWKPGQKFDTSILDNVTRESAEATLVKNGNRLVRNSIDVSV,not soluble
8,MGSDKIHHHHHHMDSLLFGISGLPNRNSNKKFTYKTGIEYLREIGLDAMELPFVRSVNITDKNKNEVLDTKLKNDFYLSAHGSYFINLNADEEEKIEKSLERIIKGAEGLKKVQGKSLIFHPGFYLKDSKEETFETIKENLLRLPDLGVDYRLETTGKGTQFGSLEENVALCKAVDTCKLCIDFSHIHARYNGSLKSYDDFARILNYVGNELGDEGLNDMHIHLSGINYTAKGERNHLPFEESDFNYKDCLKAFRDFDIKGCVICESPVLEHDALLLKNYYETL,not soluble
9,MAIERIQLHTHGDDRGLLISLEQQRNVPFEIRRVYYIFGTRQGVHRGQHAHRQLNQLAVALHGSVTLLLDEGQGQGPEEVVLDDPSQGVLLGRMVWRDLHQFSEDCVLMVLADQYYDPGDYILDYDEFLTEARGVSRLEALEHHHHHH,soluble
10,DYKDDDDKDLKCTTNNMRVWDCTWPAPLGVSPGTVKDICIKDRFHSCHPLETTNVKIPALSPGDHEVTINYLNGFQSKFTLNEKDVSLIPETPEILDLSADFFTSSLLLKWNDRGSALPHPSNATWEIKVLQNPRTEPVALVLLNTMLSGKDTVQHWNWTSDLPLQCATHSVSIRWHIDSPHFSGYKEWSDWSPLKNISWIRNTETNVFPQDKVVLAGSNMTICCMSPTKVLSGQIGNTLRPLIHLYGQTVAIHILNIPVSENSGTNIIFITDDDVYGTVVFAGYPPDVPQKLSCETHDLKEIICSWNPGRITGLVGPRNTEYTLFESISGKSAVFHRIEGLTNETYRLGVQMHPGQEIHNFTLTGRNPLGQAQSAVVINVTERVAPHDPTSLKVKDINSTVVTFSWYLPGNFTKINLLCQIEICKANSKKEVRNATIRGAEDSTYHVAVDKLNPYTAYTFRVRCSSKTFWKWSRWSDEKRHLTTEAT,soluble
11,MTKQIKVGVIGVGQMGQYHAEIYQKLPQVELVAICEFNDERRAEMAEKFQCKAYKDYHELLANTEIEAVIIVLPDNMHRDCVEEAVKHKKHILLEKPLAKELEDGKAMYELTKDYDKVFTVGFLLRFDPRFNMIKQRLDNGELGDIIHLYCRRNSPITGPKRYIGASDLSMHVMIHDIDYINWYMDSEPVKVIAKSRSVLLKEYGMNDVIYAIVTYENGAIACLEACWVLPENSPTIIDDKLELVGTKGVAYVDSCDHGVRFVSEKGVSYPDSRHWYYTNGEVSGDLAEEVMAFINNVANNTKSIITPKEAYDSLRVVDAIERSIAEGKEVSL,not soluble
12,SMRSGSSMKEEPLGSGMNAVRTWMQGAGVLDANTAAQSGVGLARAHFEKQPPSNLRKSNFFHFVLALYDRQGQPVEIERTAFVGFVEKEKEANSEKTNNGIHYRLQLLYSNGIRTEQDFYVRLIDSMTKQAIVYEGQDKNPEMCRVLLTHEIMCSRCCDKKSCGNRNETPSDPVIIDRFFLKFFLKCNQNCLKNAGNPRDMRRFQVVVSTTVNVDGHVLAVSDNMFVHNNSKHGRRARRLDPS,soluble
13,MSLTNLPEDRTGEEIRDAIKIDGEAVRGHLDELVRSTVEETLNQMLDAEADQICKAKRYERSPDRVDSRAGSYSRKLQTKAGEVSLKVPQLRSLPLETQIIERYKRRESSVEEALVEMYLAGVSVRRVEDITEALWGTRVSSSTVSELNQKIYERIDVWRNRPLEGEHPYVMLDGIWLKRSWGGEVKNIAVLVAVGVRSDGHREILSVAEGTKEDSESWRTFLRHLKERGLQGVRLITSDKCLGLVEALGEFFPEAAWQRCIVHFYRNVLKDVPRSKSRDVAAMLKAVHAQEDRTAATEKAEQVAEKLASLRLGNAAKCFRAGVQETLAYMNFPREHWTRLRSNNMLERIMKEIRRRTRVVGAFPDGQSALMLVAARLRHIAGTHWGTRRYLDMDRLHEPEEREDHEGHHHHHH,soluble
14,MSTAFNNIRQGLSEAIAHAKGNVHGVRVHRPRQVDVKAVRAKVGMTQEQFAAQFGFSPATLRHWERGDRTPRGAALVLLNVIDRNPQAVIEALA,not soluble
15,MGSDKIHHHHHHMTFAQIQTFLAVARLGNFHAAARQLNVTQAAVSARVRQLEEELDLRLFERGRRGAELTEAGRFLLPGAEAIASTWTTISKDARHFYAGRVPLRLGGQLSIWDQQLVDLVIWVEETLGALPLALNFDHEMNVQDAIRNGVLDFALTHEQPAPDLTGVALPAERLVLVGSEPFDLGQSDLPLFMNFQLGGQYDAFVARHLSGHAGQHIMMGNCAMGLRYLRKRGGIAFFPVSMVVEDIQHGHLFPVQGVPEMELACNAVYHPSSVLGDLTAQIATAARSLRSREPVVALDTMS,not soluble
16,MAGMFQDLLYLNLIGAVRAITAAQGIKIRISGEENVPESGGAVVVVNHTGYLDFIYAGYPFRKFRRYIRYMAKGDVFKHPVAGPLLREMRHIPVDRIDGTAAFDQAVDMLKKGELVGIFPEATISRSFEIKTLRPGAVRMAQAAGVPIIMVMVVGSQRVWTKGQKKNLIHPGSPIHMKVFPAWYPEGDANEATQELRRRMITGLEEVWSDYQAEEPIVPGALWVPARLGGGAPTFDEAQAEDEKVEQERRRVRVLTEEIAQLTERIKQATKAGASAVDAARHRVEDVLHGEVPAKADAGKALSVLKDTVDEFVEEVVSSAKEGKDRVMDAGEQLRRSVADLYGQAVTASQVNPVVVQATAQVSMLLDRLPQRKDAPKVELPRVLVLSVDGAVAAYPEVTLSPSVLSQVAALSQQHTVVLTTISGMDRVVALARQVAQESGADVCVSASAGAVAATVSDTDVSVLHECVVSDELRAAVQECVDSLGLDVEWKGAHHGVVSGLGADPDLWQELSQVVRVVPLPGEPDRCVIVSPEASVEAAVQTCVGDVWDEVLVCAADASEAGALARAGHRVAVVSAPVVVLREAAQWCDRPDKDGVINFLDKHFITPESV,not soluble
17,MGLISAAVGAVGGGLADQWLEVIEAGDMGEGIVLAKGVAVRTDKRNTNKKGSSDVVSNGSIIHVNQNQFMMLVDGGKIVDYTAEPGYFKVENSASPSLFGGQFGDALKETFSRFKFGGTTPMKQEVFYVNLQEIKGIKFGTPNPLQYFDNFYNAELFLRTFGNYSIKITDPIKFFKEACPRDAENVHIDEINEQYLSEFLEALQAAISQMSMEGERISFIPSKGTVLSKHMSEILDDSWKELRGMEVLSVGIASISYDDESKELINMRNKGAMLGDPGVREGYVQGSIARGMEAAGSNQAGAGMAFMGMGMGMNAAGGFMGQASQTNMQQMQMNQAAQRAAQGAGQQQGAGAKAAGEWFCTECGHKNTGKFCAECGTPKPQGLEHHHHHH,soluble
18,MGSDKIHHHHHHSCSSKPANTAKGEKGSDKTGKDLELKLSFQEGIAPGESLNEKLDFMEKLGVVGFEPGGGGLAGRVNEIKQALNGRNIKVSAICAGFKGFILSTDPAIRKECMDTMKEIIAAAGELGSTGVIIVPAFNGQVPALPHTMETRDFLCEQFNEMGTFAAQHGTSVIFEPLNRKECFYLRQVADAASLCRDINNPGVRCMGDFWHMTWEETSDMGAFISGGEYLQHVHVASRKRRSMPGEDGDADNYINGFKGLKMIGYNNYVSFECGCQGDRNVVVPAAVKLLREQWEQA,not soluble
19,MKITPLDIQQQQFKGKMLGGIDPEDVDSFLQLVAQEMEGLIRENTDLREQCRKAAADAEQTARQERELREAMLAAQKITEEMKANAQKEASLIVSEAEVKAEKILVDAERRLGQLNEQLQDLRRQKLQFESAFKALLDTHYKMISLEDA,not soluble
20,MRDEDFCCAVCLDFFVEPCIIECGHSYCRFCIESHLNINEKCPLCRAHTGNPIRNRQLESLTMSYVSSRNISTEYYERMKSYQKKLLLQNRALVIIWTELNKRPGHSTELCNLVRNVQDEELKSEIMWQVKQQVGVGLEHTGDLQEENVTIRLKNSSSQQ,not soluble
